Changes are numbered by the printed parent chain. Read-outs that look alike come from different tables or passages of the source. Each block holds one binder with its values, some of them ahead of it.
Columns and labels:
Test in all cases: SPR
FcgRIIIa F [1] = molecular target: T1, FcgRIIIa F (human, UniProt P08637)
FcgRIIIa F [2] = molecular target: T1, FcgRIIIa F; remark: listed apart in the source
FcgRIIb [3] = molecular target: T2, FcgRIIb (human, UniProt P31994)
T2 chain: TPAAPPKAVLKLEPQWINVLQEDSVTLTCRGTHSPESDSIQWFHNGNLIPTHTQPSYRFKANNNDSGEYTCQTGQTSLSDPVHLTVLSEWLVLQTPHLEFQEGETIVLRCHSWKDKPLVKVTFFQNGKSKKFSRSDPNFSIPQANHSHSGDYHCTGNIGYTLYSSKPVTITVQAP

FcgRIIIa F [4] = molecular target: T1, FcgRIIIa F; remark: listed apart in the source
FcgRIIa R [5] = molecular target: T3, FcgRIIa R (human, UniProt P12318)
T3 chain: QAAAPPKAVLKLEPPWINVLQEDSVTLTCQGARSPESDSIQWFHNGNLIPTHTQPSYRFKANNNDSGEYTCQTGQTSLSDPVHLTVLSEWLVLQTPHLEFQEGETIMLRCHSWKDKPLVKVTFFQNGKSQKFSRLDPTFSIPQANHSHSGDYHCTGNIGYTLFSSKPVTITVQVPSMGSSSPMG

FcgRIIa H [6] = molecular target: T4, FcgRIIa H (human, UniProt P12318)
T4 chain: T3 chain with R134H

FcgRIIIa V [7] = molecular target: T5, FcgRIIIa V (human, UniProt P08637)
T5 sequence (P08637 17-208 F176V): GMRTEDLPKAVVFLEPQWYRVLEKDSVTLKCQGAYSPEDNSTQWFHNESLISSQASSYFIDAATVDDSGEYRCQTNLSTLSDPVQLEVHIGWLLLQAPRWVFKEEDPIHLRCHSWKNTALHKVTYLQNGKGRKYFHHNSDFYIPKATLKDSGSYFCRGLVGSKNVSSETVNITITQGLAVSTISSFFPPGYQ

FcgRIIb [8] = molecular target: T2, FcgRIIb
FcgRIIIa F [9] = molecular target: T1, FcgRIIIa F; remark: listed apart in the source
FcgRIIa R [10] = molecular target: T3, FcgRIIa R
FcgRIIIa F [11] = molecular target: T1, FcgRIIIa F; remark: listed apart in the source
FcgRIIa H [12] = molecular target: T4, FcgRIIa H
FcgRIIIa V [13] = molecular target: T5, FcgRIIIa V; remark: listed apart in the source
FcgRIa = molecular target: T6, FcgRIa (human, UniProt P12314)
T6 chain: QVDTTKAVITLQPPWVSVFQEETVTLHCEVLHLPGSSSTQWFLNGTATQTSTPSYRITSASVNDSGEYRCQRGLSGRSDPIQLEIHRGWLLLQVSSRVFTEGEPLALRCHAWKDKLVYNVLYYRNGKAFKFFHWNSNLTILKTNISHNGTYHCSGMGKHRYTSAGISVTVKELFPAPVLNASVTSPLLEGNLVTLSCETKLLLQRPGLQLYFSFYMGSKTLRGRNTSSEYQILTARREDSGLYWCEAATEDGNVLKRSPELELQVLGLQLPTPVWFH

T1 sequence (P08637 17-208): as the sequence (P08637 17-208 F176V) above, with V160F counted along it

B1: GpH7-TA7/GpH7-TA50/GpL16-k0 (antibody)
chain 1: QVQLVQSGAEVKKPGASVTVSCKASGYTFTDYEMHWIRQPPGEGLEWIGAIDPKTGDTAYSESFQDRVTLTADKSTSTAYMELSSLTSEDTAVYYCTRFYSYTYWGQGTLVTVSSASTKGPSVFPLAPSSKSTSGGTAALGCLVKDYFPEPVTVSWNSGALTSGVHTFPAVLQSSGLYSLSSVVTVPSSSLGTQTYICNVNHKPSNTKVDKKVEPKSCDKTHTCPPCPAPEYLWGPSVFLFPPKPKDTLMISRTPEVTCVVVDVSHEDPEVKFNWYVDGVEVHNAKTKPREEQYNATYRVVSVLTVLHQDWLNGKEYKCKVSNKALPAPIEKTISKAKGQPREPQVYTLPPSRKELTKNQVSLTCLVKGFYPSDIAVEWESNGQPENNYKTTPPVLDSDGSFFLYSKLTVDKSRWQQGNVFSCSVMHEALHNRYTQKSLSLSP
chain 2: B1 chain 1 with Y232L, W234G, S237D, A296S, A328L, I330E, K332G, K354D, R433H, K437E
chain 3: DIVMTQSPLSLPVTPGEPASISCQASESLVHSNRNTYLHWYLQKPGQSPQLLIYKVSNRFSGVPDRFSGSGSGTDFTLKISRVEAEDVGVYYCSQNTHVPPTFGQGTKVEIERTVAAPSVFIFPPSDEQLKSGTASVVCLLNNFYPREAKVQWKVDNALQSGNSQESVTEQDSKDSTYSLSSTLTLSKADYEKHKVYACEVTHQGLSSPVTKSFNRGEC
Kd (FcgRIIIa F [1]): 3.4 nM

B4: GpH7-TA7/GpH7-B78/GpL16-k0 (antibody)
chain 1: B1 chain 1
chain 2: B1 chain 1 with Y232L, W234G, S237D, A296S, A328L, I330E, K354D, R433H, K437E
chain 3: B1 chain 3
Kd (FcgRIIIa F [2]): 4.1 nM | Kd (FcgRIIb [3]): 1100 nM | Kd (FcgRIIIa F [4]): 4.7 nM

B5: IL6R-BP208/IL6R-L (antibody)
chain 1: QVQLQESGPGLVKPSETLSLTCAVSGHSISHDHAWSWVRQPPGEGLEWIGFISYSGITNYNPSLQGRVTISRDNSKNTLYLQMNSLRAEDTAVYYCARSLARTTAMDYWGEGTLVTVSSASTKGPSVFPLAPSSKSTSGGTAALGCLVKDYFPEPVTVSWNSGALTSGVHTFPAVLQSSGLYSLSSVVTVPSSSLGTQTYICNVNHKPSNTKVDKKVEPKSCDKTHTCPPCPAPDLLGDDSVFLFPPKPKDTLMISRTPEVTCVVVDVSDEDGEVKFNWYVDGVEVHNAKTKPREEQYNSTYRVVSVLTVLHQDWLNGKEYKCKVSNKALPRPIEKTISKAKGQPREPQVYTLPPSRDELTKNQVSLTCLVKGFYPSDIAVEWESNGQPENNYKTTPPVLDSDGSFFLYSKLTVDKSRWQQGNVFSCSVMHEALHNHYTQESLSLSP
chain 2: not shown
Kd (FcgRIIa R [5]): 850 nM | Kd (FcgRIIa H [6]): 8300 nM | Kd (FcgRIIIa V [7]): 53000 nM

B6: H240-afucosyl_G1d/L73-k0 (antibody)
chain 1: not shown
chain 2: DIQMTQSPSSLSASVGDRVTITCRASQDIHKYIAWYQQKPGQAPRLLIQYTSTLQPGVPSRFSGSGSGTDYTFTISSLQPEDIATYYCLQYEQLRTFGGGTKVEIKRTVAAPSVFIFPPSDEQLKSGTASVVCLLNNFYPREAKVQWKVDNALQSGNSQESVTEQDSKDSTYSLSSTLTLSKADYEKHKVYACEVTHQGLSSPVTKSFNRGEC
Kd (FcgRIIb [8]): 2600 nM | Kd (FcgRIIIa F [9]): 79 nM | Kd (FcgRIIa R [10]): 490 nM | Kd (FcgRIIIa F [11]): 78 nM | Kd (FcgRIIa H [12]): 780 nM | Kd (FcgRIIIa V [13]): 6.9 nM | Kd (FcgRIa): 0.43 nM

Other lines, results leading:

Kd (FcgRIIIa F [2]): 1.3 nM
B2: GpH7-TA22/GpH7-B78/GpL16-k0 (antibody)
chain 1: B1 chain 1 with S237D
chain 2: B1 chain 1 with Y232L, W234G, S237D, A296S, A328L, I330E, K354D, R433H, K437E
chain 3: B1 chain 3

Kd (FcgRIIIa F [1]): 7.5 nM
B3: GpH7-TA40/GpH7-B78/GpL16-k0 (antibody)
chain 1: B1 chain 1 with K332G
chain 2: B1 chain 1 with Y232L, W234G, S237D, A296S, A328L, I330E, K354D, R433H, K437E
chain 3: B1 chain 3
